In assay [1] the target is T1, RSV F construct DS2 (stabilized prefusion F trimer) (human RSV A, Long strain (paper); …, stabilised).
T1 chain: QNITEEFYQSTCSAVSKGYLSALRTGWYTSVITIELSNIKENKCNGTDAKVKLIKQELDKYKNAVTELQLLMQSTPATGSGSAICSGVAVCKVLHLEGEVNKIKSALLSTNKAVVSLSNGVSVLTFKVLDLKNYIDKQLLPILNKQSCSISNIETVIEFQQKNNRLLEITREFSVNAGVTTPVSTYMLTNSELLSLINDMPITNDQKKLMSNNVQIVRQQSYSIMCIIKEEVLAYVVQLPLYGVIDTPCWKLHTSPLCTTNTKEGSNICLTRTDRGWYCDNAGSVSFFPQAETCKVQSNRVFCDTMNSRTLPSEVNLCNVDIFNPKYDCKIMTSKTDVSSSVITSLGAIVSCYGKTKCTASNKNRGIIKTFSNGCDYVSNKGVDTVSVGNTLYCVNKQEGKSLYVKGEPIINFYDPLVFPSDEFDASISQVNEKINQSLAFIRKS
Nature of the assay: SPR. (In SPR one partner is held on a chip, and binding of the other changes the refractive index at the surface.)

In assay [2] the target is T2, DS2-I53-50 nanoparticle (DS2-I53-50A co-assembled with I53-50B) (human RSV A, Long strain (paper); …, stabilised).
T2 chain: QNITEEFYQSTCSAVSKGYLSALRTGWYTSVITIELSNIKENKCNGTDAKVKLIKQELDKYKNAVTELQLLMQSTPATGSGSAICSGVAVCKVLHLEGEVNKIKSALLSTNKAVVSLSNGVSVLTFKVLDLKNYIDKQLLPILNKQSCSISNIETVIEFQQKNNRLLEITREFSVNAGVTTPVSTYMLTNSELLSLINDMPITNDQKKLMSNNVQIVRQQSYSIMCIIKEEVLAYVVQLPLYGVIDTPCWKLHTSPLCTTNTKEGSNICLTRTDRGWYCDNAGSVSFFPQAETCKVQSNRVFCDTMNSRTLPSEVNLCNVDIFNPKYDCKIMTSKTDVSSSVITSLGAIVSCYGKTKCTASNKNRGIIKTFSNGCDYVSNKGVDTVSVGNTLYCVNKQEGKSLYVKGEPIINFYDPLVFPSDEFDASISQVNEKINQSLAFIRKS
Kind of assay: SPR.

The values that follow come from article PMC12363979 (International Journal of Nanomedicine, 2025).

B1: AM14 monoclonal antibody (IgG) (antibody, V domains shown)
VH: EVQLVESGGGVVQPGRSLRLSCAASGFSFSHYAMHWVRQAPGKGLEWVAVISYDGENTYYADSVKGRFSISRDNSKNTVSLQMNSLRPEDTALYYCARDRIVDDYYYYGMDVWGQGATVTVSS
VL: DIQMTQSPSSLSASVGDRVTITCQASQDIKKYLNWYHQKPGKVPELLMHDASNLETGVPSRFSGRGSGTDFTLTISSLQPEDIGTYYCQQYDNLPPLTFGGGTKVEIK
On to B1, for which the association rate constant (kon) (in general, the second-order rate constant of association) came out at 438000 M⁻¹ s⁻¹ in assay [1] and 4.33e+06 M⁻¹ s⁻¹ in assay [2].

B2: D25 monoclonal antibody (IgG) (antibody, V domains shown)
VH: QVQLVQSGAEVKKPGSSVMVSCQASGGPLRNYIINWLRQAPGQGPEWMGGIIPVLGTVHYAPKFQGRVTITADESTDTAYIHLISLRSEDTAMYYCATETALVVSTTYLPHYFDNWGQGTLVTVSS
VL: DIQMTQSPSSLSAAVGDRVTITCQASQDIVNYLNWYQQKPGKAPKLLIYVASNLETGVPSRFSGSGSGTDFSLTISSLQPEDVATYYCQQYDNLPLTFGGGTKVEIK
B2: the association rate constant (kon) in assay [1] was 114000 M⁻¹ s⁻¹; in assay [2] it was 1.39e+06 M⁻¹ s⁻¹.
